Laboratory results: patent US7939292B2, “Modified heparinase III and methods of sequencing therewith” (Massachusetts Institute of Technology, priority 2000, dated 2011)
Positions count from the first letter of the chain named. Numbers in names are those of the source. Entries after “also recorded” stand apart in the source; their conditions may differ.

B1: H539A: recombinant heparinase III with histidine 539 mutated to alanine (protein)
chain: MTTKIFKRIIVFAVIALSSGNILAQSSSITRKDFDHINLEYSGLEKVNKAVAAGNYDDAAKALLAYYREKSKAREPDFSNAEKPADIRQPIDKVTREMADKALVHQFQPHKGYGYFDYGKDINWQMWPVKDNEVRWQLHRVKWWQAMALVYHATGDEKYAREWVYQYSDWARKNPLGLSQDNDKFVWRPLEVSDRVQSLPPTFSLFVNSPAFTPAFLMEFLNSYHQQADYLSTHYAEQGNHRLFEAQRNLFAGVSFPEFKDSPRWRQTGISVLNTEIKKQVYADGMQFELSPIYHVAAIDIFLKAYGSAKRVNLEKEFPQSYVQTVENMIMALISISLPDYNTPMFGDSWITDKNFRMAQFASWARVFPANQAIKYFATDGKQGKAPNFLSKALSNAGFYTFRSGWDKNATVMVLKASPPGEFHAQPDNGTFELFIKGRNFTPDAGVFVYSGDEAIMKLRNWYRQTRIHSTLTLDNQNMVITKARQNKWETGNNLDVLTYTNPSYPNLDHQRSVLFINKKYFLVIDRAIGEATGNLGVAWQLKEDSNPVFDKTKNRVYTTYRDGNNLMIQSLNADRTSLNEEEGKVSYVYNKELKRPAFVFEKPKKNAGTQNFVSIVYPYDGQKAPEISIRENKGNDFEKGKLNLTLTINGKQQLVLVP
B2: H469A: recombinant heparinase III with histidine 469 mutated to alanine (protein)
chain: B1 chain with H469A, A539H
B3: H241A: recombinant heparinase III with histidine 241 mutated to alanine (protein)
chain: B1 chain with H241A, A539H
B4: H36A: recombinant heparinase III with histidine 36 mutated to alanine (protein)
chain: B1 chain with H36A, A539H
B5: H225A: recombinant heparinase III with histidine 225 mutated to alanine (protein)
chain: B1 chain with H225A, A539H
B6: H234A: recombinant heparinase III with histidine 234 mutated to alanine (protein)
chain: B1 chain with H234A, A539H
B7: H510A: recombinant heparinase III with histidine 510 mutated to alanine (protein)
chain: B1 chain with H510A, A539H
B8: H424A: recombinant heparinase III with histidine 424 mutated to alanine (protein)
chain: B1 chain with H424A, A539H
B9: H152A: recombinant heparinase III with histidine 152 mutated to alanine (protein)
chain: B1 chain with H152A, A539H
B10: H295A: recombinant heparinase III with histidine 295 mutated to alanine (protein)
chain: B1 chain with H295A, A539H
B11: heat inactivated heparinase III: heat inactivated heparinase III used as control (protein, UniProt Q59289 25-659, looked up)
Heparin-sulfate lyase: QSSSITRKDFDHINLEYSGLEKVNKAVAAGNYDDAAKALLAYYREKSKAREPDFSNAEKPADIRQPIDKVTREMADKALVHQFQPHKGYGYFDYGKDINWQMWPVKDNEVRWQLHRVKWWQAMALVYHATGDEKYAREWVYQYSDWARKNPLGLSQDNDKFVWRPLEVSDRVQSLPPTFSLFVNSPAFTPAFLMEFLNSYHQQADYLSTHYAEQGNHRLFEAQRNLFAGVSFPEFKDSPRWRQTGISVLNTEIKKQVYADGMQFELSPIYHVAAIDIFLKAYGSAKRVNLEKEFPQSYVQTVENMIMALISISLPDYNTPMFGDSWITDKNFRMAQFASWARVFPANQAIKYFATDGKQGKAPNFLSKALSNAGFYTFRSGWDKNATVMVLKASPPGEFHAQPDNGTFELFIKGRNFTPDAGVFVYSGDEAIMKLRNWYRQTRIHSTLTLDNQNMVITKARQNKWETGNNLDVLTYTNPSYPNLDHQRSVLFINKKYFLVIDRAIGEATGNLGVHWQLKEDSNPVFDKTKNRVYTTYRDGNNLMIQSLNADRTSLNEEEGKVSYVYNKELKRPAFVFEKPKKNAGTQNFVSIVYPYDGQKAPEISIRENKGNDFEKGKLNLTLTINGKQQLVLVP
modifications: heat inactivated

System: not listed separately
Assay: Heparinase III kinetic assay of r-heparinase III and histidine mutants
Assay type: biochemical
Details: not given
Experimental: The activity of heparinase III was measured using a UV 232 nm assay similar to those reported for heparinase I and heparinase II (Godavarti, R., Cooney, C. L., Langer, R., and Sasisekharan, R. (1996) Biochemistry 35, 6846-52; Shriver, Z., Hu, Y., and Sasisekharan, R. (1998) J. Biol. Chem. 273, 10160-67; and Lohse, D. and Linhardt, R. J. (1992) J. Biol. Chem. 267, 781-87). Briefly, the increase in absorbance at 232 nm as a function of time was monitored under saturating substrate conditions. All assays were performed with heparan sulfate at a concentration of 2 mg/ml in 50 mM sodium phosphate, pH 7.6. The temperature for enzymatic activity measurements was kept constant at 35° C.
In parallel to the mapping studies and to confirm the results of the chemical modification experiments, each of the thirteen histidine residues present in heparinase III was mutated to alanine. The recombinant heparinase III mutant proteins were expressed, purified, and assessed for enzymatic activity towards heparan sulfate (Table 2).

| Molecule | changes in recombinant protein yield, enzyme activity, or kinetic parameters compared with r-heparinase III |
| --- | --- |
| B1 | no significant changes |
| B2 | no significant changes |
| B3 | no significant changes |
| B4 | no significant changes |
| B5 | no significant changes |
| B6 | no significant changes |
| B7 | no significant changes |
| B8 | no significant changes |
| B9 | no significant changes |

Same assay, conditions: heparan sulfate

| Molecule | kcat [s⁻¹] |
| --- | --- |
| B1 | 132 |
| B2 | 100 |
| B3 | 5 |
| B4 | 86 |
| B5 | 22 |
| B6 | 23 |
| B8 | 24 |
| B9 | 83 |

Same assay, conditions: heparan sulfate; calculated assuming a molecular weight of 15 kDa

| Molecule | Km [µM] |
| --- | --- |
| B1 | 92 |
| B2 | 71 |
| B3 | 16 |
| B4 | 98 |
| B5 | 80 |
| B6 | 75 |
| B8 | 59 |
| B9 | 58 |

Same assay, conditions: kinetic data and exhaustive digest profile

| Molecule | enzymatic activity towards heparan sulfate |
| --- | --- |
| B10 | completely inactive; also recorded: no enzymatic activity |
| B7 | completely inactive; also recorded: no enzymatic activity |

System: B16BL6 melanoma
Assay: Primary tumor growth of B16BL6 melanoma in mice treated with heparinases
Assay type: in vivo
Details: day 15
From the text: Heparinases I and III, which have very distinct substrate specificities for cleaving HLGAGs, were employed as tools to investigate the role of HLGAGs in tumor growth and metastasis. While heparinase I cleaves at the highly sulfated regions of HLGAGs, heparinase III only cleaves at the under-sulfated regions of the polysaccharide chain, thereby rendering these enzymes powerful tools to investigate in vivo and in vitro roles of HLGAGs, in development, morphogenesis, angiogenesis etc. To examine the roles of HLGAGs in tumor growth and metastasis, we used B16BL6 melanoma as a model system and treated tumor-bearing mice with either heparinases I or III to investigate both primary tumor growth as well as tumor metastasis. Consistent with the current paradigm, heparinase I accelerated tumor growth (FIG. 8). At a dosage of 0.5 mg/kg/day of heparinase I, tumor growth was increased by about 39%. […] Inhibition of primary tumor growth by heparinase III was first observed at 2 mg/kg per day. Tumor growth was inhibited by 73% at 12 mg/kg per day, the maximum dosage tested in the study (FIG. 8).
Mice, 15 days after tumor implantation with B16BL6 melanoma, were examined. 4×10^5 log growth phase B16BL6 melanoma cells in 0.1 ml PBS were injected to the flank of C57BL/6 mice on day 1. Daily injection of 0.1 ml of PBS, heat inactivated hep III or active heparinase III (2 mg/ml, recombinantly expressed, purified, buffer exchanged with PBS, and concentrated) started at the day 4 and continued throughout the experiment. At day 7, osmotic pumps (100 μl capacity delivering at 0.5 μl per hour) containing PBS or 3 mg/ml hep III were implanted subcutaneously at a place remote from the tumor site. Mice were sacrificed at day 15.
FIG. 8 depicts the tumor volume of the tumors isolated from the mice described above. Tumor volume was measured daily after day 7 with a caliper and calculated with the formula [volume=0.52×(width)^2×(length)].

| Molecule | tumor mass upon visual inspection compared with active Hep III |
| --- | --- |
| B11 | significantly larger tumor masses |

Same assay, conditions: mouse, in vivo

| Molecule | tumor growth curves compared with PBS treated mice |
| --- | --- |
| B11 | comparable growth curves |
